Assay [1] addresses T1, cynomolgus monkey beta klotho protein (cynomolgus monkey (Macaca fascicularis), UniProt Q86Z14 53-996 (human entry), limits assumed).
T1 construct: Soluble protein injected in Biacore assays; also called Cyno KLB; cyno beta klotho
T1 chain: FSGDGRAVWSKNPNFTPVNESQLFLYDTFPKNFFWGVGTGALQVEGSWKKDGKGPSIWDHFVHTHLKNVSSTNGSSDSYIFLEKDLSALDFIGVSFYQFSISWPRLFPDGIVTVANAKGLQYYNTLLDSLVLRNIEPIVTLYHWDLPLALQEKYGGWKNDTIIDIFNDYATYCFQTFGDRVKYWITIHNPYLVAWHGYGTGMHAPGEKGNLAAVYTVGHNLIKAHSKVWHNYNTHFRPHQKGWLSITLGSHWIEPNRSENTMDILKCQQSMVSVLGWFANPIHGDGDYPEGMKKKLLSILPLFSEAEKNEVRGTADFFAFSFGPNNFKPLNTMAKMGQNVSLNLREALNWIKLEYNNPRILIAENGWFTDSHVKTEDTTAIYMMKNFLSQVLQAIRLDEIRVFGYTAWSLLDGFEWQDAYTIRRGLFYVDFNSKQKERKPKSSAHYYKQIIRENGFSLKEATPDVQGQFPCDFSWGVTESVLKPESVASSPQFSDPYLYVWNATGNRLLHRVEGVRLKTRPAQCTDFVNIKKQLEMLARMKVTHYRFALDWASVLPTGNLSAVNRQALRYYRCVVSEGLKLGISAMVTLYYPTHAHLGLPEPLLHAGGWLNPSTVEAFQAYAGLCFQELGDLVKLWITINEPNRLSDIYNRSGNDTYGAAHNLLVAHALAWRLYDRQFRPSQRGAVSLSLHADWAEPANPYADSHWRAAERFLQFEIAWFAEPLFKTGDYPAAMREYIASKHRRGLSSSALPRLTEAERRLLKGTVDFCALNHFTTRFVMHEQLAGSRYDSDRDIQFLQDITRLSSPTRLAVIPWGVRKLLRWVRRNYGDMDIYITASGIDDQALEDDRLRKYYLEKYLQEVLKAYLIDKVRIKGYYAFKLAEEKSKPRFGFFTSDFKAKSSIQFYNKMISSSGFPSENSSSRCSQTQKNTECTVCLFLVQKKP
The experiment in a line: Biacore SPR; antibody captured on anti-mouse Fc CM5 chip, beta klotho 1.56-25 nM injected, 25 C. The method, then: Binding affinity measurements were also made in additional Biacore based assays. For example, equilibrium dissociation constant (KD) measurements were carried out with purified antibodies to evaluate their binding to human beta klotho and cyno beta klotho. As mentioned above, anti-mouse Fc antibody (Sigma-Aldrich, St. Louis, Mo.) was immobilized on all four flow cells of a CM5 chip using amine coupling reagents (GE Healthcare LifeSciences, Piscataway, N.J.). Purified antibodies were captured (˜100 RUs) on flow cells 2, 3 and 4 using flow cell 1 as a reference. This was followed by injection of different concentrations of human or cyno beta klotho (1.56 nM to 25 nM, two-fold dilutions in PBS-P buffer) at a flow rate of 70 μL/min and the binding kinetics were evaluated at 25° C.
A general note: SPR reads the build-up and loss of mass on a sensor chip optically.

Assay [2] addresses T2, human beta klotho expressed on cells (human, UniProt Q86Z14 1-1044).
T2 construct: in the reporter assays HEK293 cells were transfected with a GeneCopoeia human beta klotho plasmid together with human FGFR1c; in the adipocyte assay the beta klotho/FGFR1c is endogenous; also called HuKLB overexpressing cells; huKLB/R1c
T2 sequence: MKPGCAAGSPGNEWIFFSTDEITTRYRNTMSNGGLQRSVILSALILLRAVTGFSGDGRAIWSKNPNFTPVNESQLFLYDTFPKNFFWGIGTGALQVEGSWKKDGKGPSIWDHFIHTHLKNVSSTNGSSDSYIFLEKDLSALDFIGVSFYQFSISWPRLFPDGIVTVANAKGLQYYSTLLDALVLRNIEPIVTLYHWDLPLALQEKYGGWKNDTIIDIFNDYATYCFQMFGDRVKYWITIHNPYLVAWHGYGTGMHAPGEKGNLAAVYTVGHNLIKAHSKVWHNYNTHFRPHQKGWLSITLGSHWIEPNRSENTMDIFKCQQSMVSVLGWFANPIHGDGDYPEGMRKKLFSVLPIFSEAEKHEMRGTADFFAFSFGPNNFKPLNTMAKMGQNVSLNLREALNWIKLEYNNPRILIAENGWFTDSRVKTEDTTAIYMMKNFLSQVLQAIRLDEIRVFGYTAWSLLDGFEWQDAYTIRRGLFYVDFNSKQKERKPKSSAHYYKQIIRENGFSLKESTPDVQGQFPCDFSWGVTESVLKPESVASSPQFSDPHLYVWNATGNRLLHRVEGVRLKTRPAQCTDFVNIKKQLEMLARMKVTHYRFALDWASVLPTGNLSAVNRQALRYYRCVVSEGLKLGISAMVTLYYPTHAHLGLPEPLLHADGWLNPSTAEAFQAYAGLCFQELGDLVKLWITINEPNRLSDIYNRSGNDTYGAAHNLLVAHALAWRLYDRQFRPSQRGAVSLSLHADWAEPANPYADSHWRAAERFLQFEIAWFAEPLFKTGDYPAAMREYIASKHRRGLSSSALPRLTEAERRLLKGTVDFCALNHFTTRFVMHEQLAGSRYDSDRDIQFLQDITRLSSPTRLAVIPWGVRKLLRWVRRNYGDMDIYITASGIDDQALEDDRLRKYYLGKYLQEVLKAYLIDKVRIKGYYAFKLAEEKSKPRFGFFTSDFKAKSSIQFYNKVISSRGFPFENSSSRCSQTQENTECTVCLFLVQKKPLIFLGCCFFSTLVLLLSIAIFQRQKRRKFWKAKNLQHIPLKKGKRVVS
The experiment in a line: FACS competition on HuKLB overexpressing cells; cells pre-incubated with the row's antibody, competitor: labelled 9E19-Alexa647. The procedure:
For example, for competition binding assays by FACS analysis, antibody standards were prepared that were conjugated to a fluorochrome using either A488 or A647 antibody labeling kit (Invitrogen) following manufacturer's instructions. A dose titration of the conjugated antibody standard was evaluated using HuKLB overexpressing cells. The plateau of the maximal signal of antibody binding is EC=100 and the background signal is EC=0. Competition by FACS against the fluorochrome labeled antibody was performed by pre-incubating HuKLB overexpressing cells with hybridoma supernatants for 15 minutes at room temperature. Without washing, an EC=10 concentration of A488 or A647 labelled antibody standard was added. EC=10 for an individual antibody was determined by 10% of signal using the maximum signal as (100%) and background signal as (0%). After 30 minutes at 4° C., cells are washed and analyzed by FACS. […] A partial competing antibody is one sample that show signal between labelled antibody alone and background. Antibodies that show complete competition against the same standard antibody are considered to be in the same bin.
In exemplary competition binding experiments by FACS, antibody 3I13 or 9E19 was used as an antibody standard fora positive control (competing antibody) or a negative control (labeled antibody alone), respectively. Representative results are shown in Table 5 below reported as mean fluorescence intensity (MFI).

Usually Kd stands for the equilibrium constant for the complex coming apart.

B1: anti-beta klotho monoclonal antibody 3I13 (antibody, V domains shown)
VH: QVQLQQSGPELVKPGASVKISCKTSGYTFTEYTMHWVKQSHGKSLEWIGSFNPDSGGTSYNQKFKGKATLTVDKSSSTAYMELRSLTSEDSAVYYCARDDGYSTRYWYFDVWGAGTTVTVSS
VL: DIQMTQSPASLSASVGETVTITCGASENIYGALNWFQRKQGKSPQLLIYGATILADGMSSRFSGSGSGRQYSLKISSLHPDDVATYYCQNVLSTPYTFGGGTKLEIK
notes: Murine monoclonal antibody from a hybridoma (captured by anti-mouse Fc); also called 3I13 - Alexa488
B1 yielded a Kd in assay [1] of 1.9 nM. Also, the “Mean Florescence Intensity (MFI)” value in assay [2] turned out to be 27.8 MFI.

B2: anti-beta klotho monoclonal antibody 2J21 (antibody, V domains shown)
VH: EVQLQQSGPELVKPGASVKISCKTSGYTFTEYIMHWVKQSHGKSLEWIGNIDPNTGGTSYNQKFKGKATLTVDKSSITAFMELRSLTSEDSAVYYCARDDGYSTRYWYFDVWGAGTTVTVSS
VL: DIQMTQSPPSLSASVGETVTITCGASENIYGALNWYQRKQGKSPQLLIYGATNLADGMSSRFSGSGSGRQYSLKISSLHPDDVATYYCQNVLSTPYTFGGGTKLEIK
notes: Murine monoclonal antibody from a hybridoma
In assay [1], B2 showed a Kd of 12.2 nM. Besides, the “Mean Florescence Intensity (MFI)” value in assay [2] is 25.7 MFI.

B3: anti-beta klotho monoclonal antibody 4A2 (antibody, V domains shown)
VH: EVQLQQSGPELVKPGTSVKISCKTSGYTFTEYTMYWVKQSHGKSLEWIGGFNPNYGGASYNQKFKDKATLTVDKSSSTAYMELRSLTSEDSAVYYCARDDGYSTRYWYFDVWGAGTTVTVSS
VL: DIQMTQSPASLSASVGETVTITCGASENIYGALNWYQRKQGKSPQLLIYGATNLADGMSSRFSGSGSGRQYSLKISSLHPDDVATYYCQNVLSTPYTFGGGTKLEIK
notes: as for B2
B3 registered a Kd in assay [1] of 3.2 nM. Also, the “Mean Florescence Intensity (MFI)” value in assay [2] amounted to 28.5 MFI.

The record behind these values is patent US20210115133A1 (NGM BIOPHARMACEUTICALS, published 2021).
